Target: G9a or GLP catalytic SET domains
Experiment: ITC

Kd: 4 to 6 µM
Substance: mDnmt3a(39–50)K44me0 peptide
